Laboratory results taken from the supplement of paper PMC10126150.
± gives the standard deviation of the averaged measurements.

system: ATP; test: switch fluorescence ratio, 500 uM ATP over buffer (Cy3 cluster intensity, sum of 5 cycles each) (fold (ratio)); higher = stronger signal-on switching upon ATP binding; sequences stand for … in TCGTCGGCAGCGTCAGATGTGTATAAGAGACAGTTTTTTTTTTTTTTTTTTTTTTTTT…TC; conditions: aptamer strand: ATP DNA aptamer (quencher-CACCTGGGGGAGTATTGCGGAGGAAGG + anchor), 100 nM annealed; ATP concentration: 500 uM
Method in brief: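 Values give the fluorescence ratio for each switch-domain sequence, averaged from per-cluster ratios of summed target-cycle to summed buffer-cycle Cy3 intensity. The Cy3-labelled switching-strand clusters sat on a modified Illumina MiSeq flow-cell, were annealed to 100 nM quencher-labelled ATP aptamer, and were imaged in selection buffer, then after 15 min with 500 uM ATP at 22 °C. Five cycles ran with NaOH stripping and re-annealing between them, and clusters outside 100-1000 RFU were excluded.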
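Note: ATP exposure 15 min at 22 °C before imaging.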

Row | Sequence | switch fluorescence ratio
1 | GTCTGGGCGG | 0.9919 ± 0.0031
2 | GTCTGGGGTG | 1.04 ± 0.021
3 | GTCTGGTTGA | 1.02 ± 0.033
4 | GTCTGTGGGT | 0.972 ± 0.06
5 | GTCTTTAACT | 0.982 ± 0.059
6 | GTCTTTTAGG | 0.9981 ± 0.0086
7 | GTCTTTTGTA | 0.983 ± 0.04
8 | GTCTTTTTTT | 0.96 ± 0.045
9 | GTGAAAACCG | 1.03 ± 0.062
10 | GTGAAAAGGC | 0.9862 ± 0.0032
11 | GTGAAGAAGG | 1.13 ± 0.2
12 | GTGACAATTT | 0.998 ± 0.069
13 | GTGACAGGTC | 0.974 ± 0.038
14 | GTGACGGGGG | 1.02 ± 0.029
15 | GTGAGCTGAT | 1.023 ± 0.0081
16 | GTGAGCTTGT | 1.02 ± 0.013
17 | GTGAGGGAGC | 1.12 ± 0.27
18 | GTGAGGGGGA | 1 ± 0.033
19 | GTGAGGGGGC | 0.993 ± 0.1
20 | GTGAGGGGTG | 0.996 ± 0.032
21 | GTGAGTAATT | 1.02 ± 0.078
22 | GTGAGTATCG | 0.968 ± 0.0098
23 | GTGAGTGCCT | 1.006 ± 0.01
24 | GTGAGTGTAT | 0.9682 ± 0.0092
25 | GTGATAACGG | 1.008 ± 0.0091

Row | Sequence | switch fluorescence ratio
26 | GTGATACCGT | 0.99 ± 0.0087
27 | GTGATAGGGA | 1 ± 0.013
28 | GTGATAGTGG | 0.9385 ± 0.0022
29 | GTGATATAGG | 1.03 ± 0.041
30 | GTGATATGAG | 1.01 ± 0.036
31 | GTGATGACAT | 1 ± 0.013
32 | GTGATGGGTT | 0.953 ± 0.014
33 | GTGATGGTT | 0.984 ± 0.03
34 | GTGCAACTAC | 2.93 ± 0.32
35 | GTGCAAGGCG | 0.988 ± 0.032
36 | GTGCAGGGGC | 1.04 ± 0.019
37 | GTGCATGGGG | 1.02 ± 0.0056
38 | GTGCCGGGTT | 1.03 ± 0.066
39 | GTGCGGGGCG | 1.02 ± 0.067
40 | GTGCTACGTG | 0.966 ± 0.059
41 | GTGCTGCCGG | 1.01 ± 0.049
42 | GTGGAAATAG | 1.01 ± 0.05
43 | GTGGAAGCCG | 1.013 ± 0.0034
44 | GTGGAAGCTT | 1.01 ± 0.041
45 | GTGGACAACG | 0.9924 ± 0.0099
46 | GTGGAGAGGG | 0.993 ± 0.038
47 | GTGGAGGGTT | 1.03 ± 0.04
48 | GTGGATAATG | 0.996 ± 0.056
49 | GTGGATATGG | 0.995 ± 0.043
50 | GTGGATTCAC | 0.98 ± 0.0096

Row | Sequence | switch fluorescence ratio
51 | GTGGATTGGT | 0.974 ± 0.013
52 | GTGGCCATTA | 0.995 ± 0.02
53 | GTGGCCGGGT | 1.03 ± 0.0047
54 | GTGGCGGATT | 1.02 ± 0.013
55 | GTGGCTAATT | 1 ± 0.015
56 | GTGGCTGTTT | 1.02 ± 0.02
57 | GTGGGAAAAA | 1.01 ± 0.0085
58 | GTGGGAAGGT | 0.994 ± 0.038
59 | GTGGGATAAT | 1.02 ± 0.021
60 | GTGGGATATA | 0.995 ± 0.049
61 | GTGGGATATT | 0.9809 ± 0.0056
62 | GTGGGATGTT | 1.01 ± 0.015
63 | GTGGGATTAT | 1 ± 0.019
64 | GTGGGCAGGT | 0.988 ± 0.024
65 | GTGGGCGGTC | 0.995 ± 0.057
66 | GTGGGCGTTT | 1 ± 0.017
67 | GTGGGGAAAG | 0.99 ± 0.034
68 | GTGGGGAAGG | 1.02 ± 0.054
69 | GTGGGGATGG | 0.966 ± 0.024
70 | GTGGGGATTG | 0.9379 ± 0.0016
71 | GTGGGGCAGT | 0.996 ± 0.025
72 | GTGGGGCGGG | 0.999 ± 0.02
73 | GTGGGGCTTA | 0.994 ± 0.032
74 | GTGGGGGAA | 0.994 ± 0.034
75 | GTGGGGGCGT | 1 ± 0.026

Row | Sequence | switch fluorescence ratio
76 | GTGGGGGGGC | 0.989 ± 0.032
77 | GTGGGGGGTA | 1 ± 0.031
78 | GTGGGGGGTT | 0.993 ± 0.026
79 | GTGGGGGTCT | 0.972 ± 0.013
80 | GTGGGGTAGT | 0.995 ± 0.018
81 | GTGGGGTATG | 0.977 ± 0.032
82 | GTGGGGTTGT | 0.973 ± 0.022
83 | GTGGGGTTTG | 1.01 ± 0.041
84 | GTGGGTGAC | 0.977 ± 0.049
85 | GTGGGTTGTT | 0.9719 ± 0.005
86 | GTGGTAAGGG | 0.972 ± 0.034
87 | GTGGTAATGG | 0.953 ± 0.021
88 | GTGGTAGCAC | 1.01 ± 0.025
89 | GTGGTAGGTA | 0.998 ± 0.021
90 | GTGGTAGGTT | 0.981 ± 0.027
91 | GTGGTATGTG | 0.95 ± 0.045
92 | GTGGTCGGGA | 1.09 ± 0.15
93 | GTGGTGCTTA | 0.996 ± 0.032
94 | GTGGTGGTGG | 0.996 ± 0.023
95 | GTGGTTACAG | 1.02 ± 0.011
96 | GTGGTTAGCA | 0.9712 ± 0.0065
97 | GTGGTTGGGT | 0.979 ± 0.023
98 | GTGGTTGTAT | 0.974 ± 0.015
99 | GTGGTTGTCG | 0.983 ± 0.015
100 | GTGGTTGTTT | 1.01 ± 0.049

Row | Sequence | switch fluorescence ratio
101 | GTGTAAATAG | 1.01 ± 0.025
102 | GTGTAAATCT | 1.036 ± 0.0046
103 | GTGTAAGTA | 0.9702 ± 0.0042
104 | GTGTACAAAT | 0.9896 ± 0.0041
105 | GTGTACGTGG | 1.008 ± 0.0057
106 | GTGTAGAGGG | 1 ± 0.048
107 | GTGTATGGAT | 1.023 ± 0.0066
108 | GTGTATGTTT | 1.01 ± 0.028
109 | GTGTCATAGT | 0.9923 ± 0.0016
110 | GTGTCCCTC | 1.01 ± 0.04
111 | GTGTCCTTGG | 1.006 ± 0.0084
112 | GTGTCGCGGG | 0.962 ± 0.013
113 | GTGTCGTTTG | 1 ± 0.032
114 | GTGTCTGTTG | 0.981 ± 0.02
115 | GTGTGACAAC | 0.975 ± 0.013
116 | GTGTGCCGCA | 0.977 ± 0.031
117 | GTGTGCGGGG | 1.06 ± 0.079
118 | GTGTGGAGGA | 1.03 ± 0.037
119 | GTGTGGCACT | 0.9989 ± 0.0056
120 | GTGTGGCGGG | 0.996 ± 0.011
121 | GTGTGGCTGG | 0.9398 ± 0.0088
122 | GTGTGGGAGC | 1 ± 0.06
123 | GTGTGGGTTC | 0.982 ± 0.012
124 | GTGTGTGTAA | 1.01 ± 0.045
125 | GTGTGTTTGT | 0.955 ± 0.038

Row | Sequence | switch fluorescence ratio
126 | GTGTTAAAAT | 1.01 ± 0.018
127 | GTGTTACTTT | 0.99 ± 0.017
128 | GTGTTAGAT | 0.964 ± 0.043
129 | GTGTTAGGGT | 0.984 ± 0.035
130 | GTGTTATGTG | 0.9504 ± 0.0021
131 | GTGTTCGCTT | 0.984 ± 0.0099
132 | GTGTTCGGGG | 0.998 ± 0.021
133 | GTGTTCTCGC | 0.999 ± 0.05
134 | GTGTTGGTAT | 1.01 ± 0.034
135 | GTGTTGTTGC | 0.981 ± 0.0012
136 | GTGTTGTTGT | 0.998 ± 0.016
137 | GTGTTTAAGT | 0.962 ± 0.014
138 | GTGTTTAATT | 1.03 ± 0.035
139 | GTGTTTAGGA | 1.02 ± 0.018
140 | GTGTTTAGGG | 0.999 ± 0.021
141 | GTGTTTGGCT | 0.972 ± 0.024
142 | GTGTTTGTCA | 0.981 ± 0.017
143 | GTTAAAAGGG | 1.01 ± 0.028
144 | GTTAAAGATA | 0.9918 ± 0.00016
145 | GTTAAATGGT | 1 ± 0.031
146 | GTTAACAGTT | 0.989 ± 0.027
147 | GTTAACCAGC | 1.05 ± 0.016
148 | GTTAACGGGT | 0.997 ± 0.02
149 | GTTAACTAAT | 1.57 ± 0.85
150 | GTTAAGGGGA | 0.999 ± 0.021

Row | Sequence | switch fluorescence ratio
151 | GTTAATACCC | 1.04 ± 0.014
152 | GTTAATAGTG | 0.988 ± 0.021
153 | GTTAATCTTA | 0.9873 ± 0.0036
154 | GTTAATTAGC | 1.03 ± 0.041
155 | GTTACAGAGA | 1.003 ± 0.0011
156 | GTTACGTTAT | 1.13 ± 0.078
157 | GTTACTGGCC | 1.01 ± 0.0068
158 | GTTACTTAGC | 1.04 ± 0.082
159 | GTTAGAAGGG | 0.978 ± 0.023
160 | GTTAGAGGGA | 0.99589 ± 4.1e-05
161 | GTTAGCAAGG | 1.08 ± 0.018
162 | GTTAGCAGGG | 1.01 ± 0.044
163 | GTTAGCTAAT | 0.987 ± 0.034
164 | GTTAGGGGCA | 1 ± 0.072
165 | GTTAGGGTAT | 0.9975 ± 0.004
166 | GTTAGGTGGC | 0.931 ± 0.021
167 | GTTAGTACGG | 0.9819 ± 0.0036
168 | GTTAGTAGCT | 0.97 ± 0.013
169 | GTTAGTGCGA | 1.01 ± 0.037
170 | GTTAGTGGCT | 0.9906 ± 0.0034
171 | GTTAGTTAGG | 0.976 ± 0.025
172 | GTTATAATCC | 1.037 ± 0.0076
173 | GTTATACGGT | 0.997 ± 0.057
174 | GTTATAGAGG | 1.03 ± 0.042
175 | GTTATAGCGG | 0.976 ± 0.018

Row | Sequence | switch fluorescence ratio
176 | GTTATAGCTA | 0.9859 ± 0.0061
177 | GTTATATCGC | 0.985 ± 0.03
178 | GTTATATGGT | 1.02 ± 0.021
179 | GTTATATTGA | 0.999 ± 0.026
180 | GTTATATTGT | 0.9943 ± 0.0096
181 | GTTATCATTA | 1.02 ± 0.03
182 | GTTATCGAGG | 1.02 ± 0.011
183 | GTTATCTCTT | 0.996 ± 0.033
184 | GTTATGTCTG | 1.03 ± 0.065
185 | GTTATGTTTG | 1.01 ± 0.045
186 | GTTATTAGTG | 0.993 ± 0.016
187 | GTTATTCGGT | 0.991 ± 0.023
188 | GTTATTGCGT | 0.982 ± 0.05
189 | GTTATTGGGT | 0.988 ± 0.046
190 | GTTATTTAGT | 0.967 ± 0.05
191 | GTTATTTGGA | 0.971 ± 0.069
192 | GTTATTTGGT | 0.992 ± 0.04
193 | GTTATTTTTT | 0.987 ± 0.028
194 | GTTCAAATGA | 0.987 ± 0.017
195 | GTTCAAGGAA | 0.9937 ± 0.0036
196 | GTTCCGGGGA | 1.02 ± 0.016
197 | GTTCCGGTCG | 1.07 ± 0.098
198 | GTTCCTGGGG | 1.03 ± 0.019
199 | GTTCCTTTTT | 1.02 ± 0.064
200 | GTTCGTGATA | 1.05 ± 0.043
